Reference: patent US20160083464A1 (MEDICAL AND BIOLOGICAL LABORATORIES, published 2016)

Columns and labels:
[1] = molecular target: T1, human-derived transmembrane HB-EGF protein (wild type HB-EGF) (human, UniProt Q99075 20-208); experiment: flow cytometry with 293T culture supernatant as primary antibody (the FIG. 11 legend says ELISA)
T1 construct: also called human HB-EGF protein; cell surface HB-EGF
Protocol: The reactivity of the 35-1 chimeric antibody or the 35-1 humanized antibody with HB-EGF was evaluated by the flow cytometry.
The antibody concentration in the culture supernatant was calculated according to a sandwich ELISA method. […] After the plate was washed with 0.05% Tween 20-PBS, an HRP-labeled goat anti-mouse IgG (manufactured by MBL Co., Ltd., code number: 330) having been diluted to 1/10000 was added as a detection antibody in an amount of 50 μL/well and left to stand at room temperature for 1 hour. After the plate was washed with 0.05% Tween 20-PBS, a color developing solution was added thereto in an amount of 50 μL/well and left to stand at room temperature for 20 minutes to develop a color. The color development was terminated by adding 1 M phosphoric acid in an amount of 50 μL/well. Then, the absorbance at 450 nm was measured with a plate reader. Regarding the antibody concentration in the culture supernatant, a standard curve was created based on measured values obtained by serially diluting the antibody solution of a known concentration, and the antibody concentration was calculated from the measured values of the culture supernatant.

mutant HB-EGF F115A = mutant HB-EGF F115A (human, UniProt Q99075 20-208); experiment: flow cytometry on 293T cells transiently expressing the mutant, antibody 5 µg/mL
Protocol: (§1) First, prepared were cells expressing amino acid point mutant HB-EGF to be subjected to the flow cytometry. To be more specific, genes encoding mutant HB-EGF shown in Table 1 were prepared by site-directed mutagenesis using the HB-EGF-pQCxmhIPG as a template. The obtained mutant HB-EGF genes were each inserted into an animal cell expression vector pQCxmhIPG to prepare a vector encoding each mutant HB-EGF. […] Thus, cells expressing amino acid point mutant HB-EGF were prepared.
(§2) Next, each of the anti-HB-EGF antibodies (5 μg/mL) and a secondary antibody (manufactured by Beckman Coulter, Inc., catalog number: IM0855, this antibody was diluted to 1/200 for use)) were allowed to react with the cells expressing the wild type HB-EGF or each mutant HB-EGF, and the mean fluorescence intensity was analyzed by the flow cytometry. […] Then, based on the obtained mean fluorescence intensity (antibody reactivity), the binding strength (relative value) of each anti-HB-EGF antibody to each mutant HB-EGF was calculated according to the following formula (Formula *).

mutant HB-EGF I117A = mutant HB-EGF I117A (human, UniProt Q99075 20-208); experiment: as above
Protocol: as §1, §2

[2] = molecular target: T1, human-derived transmembrane HB-EGF …; experiment: flow cytometry on HB-EGF-expressing cells (summary of the selection)

T1 sequence (Q99075 20-208): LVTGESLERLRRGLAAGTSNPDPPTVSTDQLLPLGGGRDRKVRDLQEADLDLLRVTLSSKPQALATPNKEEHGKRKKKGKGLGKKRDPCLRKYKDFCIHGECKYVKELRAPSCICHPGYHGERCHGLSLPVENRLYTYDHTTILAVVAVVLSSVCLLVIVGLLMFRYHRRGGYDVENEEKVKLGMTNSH
Chain of mutant HB-EGF I117A (Q99075 20-208 I117A): as the sequence (Q99075 20-208) above, with I98A counted along it
Chain of mutant HB-EGF F115A (Q99075 20-208 F115A): as the sequence (Q99075 20-208) above, with F96A counted along it

binding result [1]	binding result (mutant HB-EGF F115A)	binding result (mutant HB-EGF I117A)	binding result [2]	Binder
–	binds	binds	binds	35-1 antibody (antibody, mouse IgG1, V domains shown, Variable genes were amplified with mouse IgG1 CH1 and kappa constant region primers) VH: EVQLQQSGPELVKPRASVKISCKASGYSFSGYYMHWVKQSPEKSLEWIGEINPSTGGITYNQKFKAKATLTVDRSSSTAYMQLKSLTSEDSAVYYCTRITWAFAYWGQGTLVTVSA VL: QIVLTQSPAIMSASPGEKVTMTCSASSSVTYMYWYQQKPGSSPRLLIYDTSNLASGVPVRFSGSGSGTSYSLTISRMEAEDAATYYCQQWSSYPPTFGGGTKLEIK
–	binds	binds	binds	292 antibody (antibody, mouse IgG1, V domains shown, Variable genes were amplified with mouse IgG1 CH1 and kappa constant region primers) VH: EVQLQQSGPELVKPGASVKISCKASGYSFTGYYMHWVKQSPEKSLEWIGEINPSTGGTTYNQKFKAKATLTLDKSSSTAYMQLKSLTSEDSAVYYCAKSPYWDGAYWGQGTLVTVSA VL: QIVLTQSPAIMSASPGEKVTMTCSASSSISYMYWYQQRPGSSPRLLIYDTSNLASGVPVRFSGSGSGTSHSLTISRMEAEDAATYYCQQWSSYPSTFGGGTKLEIK

The remaining lines, values behind:

Binder	binding result [1]	binding result (mutant HB-EGF F115A)	binding result (mutant HB-EGF I117A)	binding result [2]
35-1 humanized antibody (antibody, V domains shown, CDR-grafted variable regions in a Lonza human IgG1 vector (human IgG1 constant region); also called humanized 35-1 antibody) VH: QVQLVQSGAEVVKPGSSVKVSCKASGYSFSGYYMHWVKQAPGQGLEWIGEINPSTGGITYNQKFKAKATLTVDRSTSTAYMELKSLTSEDTAVYYCTRITWAFAYWGQGTTVTVSS VL: QIVLTQSPTTMAASPGEKITITCSASSSVTYMYWYQQRPGFSPKLLIYDTSNLASGVPVRFSGSGSGTSYSLTIGTMEAEDVATYYCQQWSSYPPTFGGGTKLEIK	binds	–	–	–
35-1 chimeric antibody (antibody, V domains shown, Variable regions of the 35-1 antibody in Lonza human IgG1 antibody producing vectors (human IgG1 constant region); also called chimerized 35-1 antibody) VH: EVQLQQSGPELVKPRASVKISCKASGYSFSGYYMHWVKQSPEKSLEWIGEINPSTGGITYNQKFKAKATLTVDRSSSTAYMQLKSLTSEDSAVYYCTRITWAFAYWGQGTLVTVSA VL: QIVLTQSPAIMSASPGEKVTMTCSASSSVTYMYWYQQKPGSSPRLLIYDTSNLASGVPVRFSGSGSGTSYSLTISRMEAEDAATYYCQQWSSYPPTFGGGTKLEIK	binds	–	–	–
